Molecular target: Tsr2 (in the ITC with yeast ESS2) (S. cerevisiae (yeast)) (UniProt Q06672)
Test: ITC; VP-ITC; 20–40 µM Tsr2 variant in the cell, 400–800 µM ESS2 peptide in the syringe; 25 °C, 20 mM NaPi pH 7.1, 1 mM DTT, 10 µM EDTA

Kd: 700 nM
stoichiometry N: 1
B1: ESS2 peptide (peptide)
peptide: RPRFNRENKVSPADAAKKAL
